# According to patent US20090325869A1 (CHILDREN S HOSPITAL AND RESEARCH CENTER OAKLAND, published 2009):
# T1: Ferritin H (frog), wild type, protein nanocage (frog, UniProt P07229 2-176)
# T1 sequence (looked up): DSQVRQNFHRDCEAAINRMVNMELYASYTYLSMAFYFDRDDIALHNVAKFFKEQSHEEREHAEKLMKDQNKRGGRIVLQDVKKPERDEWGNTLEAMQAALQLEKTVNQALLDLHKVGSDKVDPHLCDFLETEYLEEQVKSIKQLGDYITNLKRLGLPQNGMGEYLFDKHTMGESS
# Molecular target: T1, Ferritin H (frog), wild type, protein …
# Assay: cell-based or functional assay
binder,measurement,value
"HSNTYYFPKGG [Peptide 1, synthetic undecapeptide HSNTYYFPKGG]","rate of ferritin demineralization, fold against wild type ferritin H without peptide",3.3 fold
